# From patent US20230322924A1 (Janssen / Centocor, published 2023)
# Key:
# Cyno CD33 ECD-HSA [1] = molecular target: T1, Cyno CD33 ECD-HSA (cynomolgus monkey); assay: ProteOn SPR, mAb captured by anti-human Fc, 1:1 Langmuir fit
# T1 construct: Cyno CD33 extracellular domain fused to monomeric human serum albumin and a six-histidine tag; also called C33W1
# Human CD33 ECD-HSA [2] = molecular target: Human CD33 ECD-HSA (human); assay: as above
# Human CD33 ECD-HSA [3] = molecular target: Human CD33 ECD-HSA (human); assay: SPRi off-rate screen (IBIS MX96), mAb captured by anti-human Fc; column head prints KD
# [4] = molecular target: T2, Cyno CD33 full length, expressed on HEK293F cells (cynomolgus monkey); assay: flow cytometry, HEK293F cells expressing cyno CD33
# T2 construct: HEK293F cells transduced with lentivirus containing full length cyno CD33 (Genbank XP_005590138.1); also called cyCD33
# Cyno CD33 ECD-HSA [5] = molecular target: T1, Cyno CD33 ECD-HSA; assay: SPRi off-rate screen (IBIS MX96), mAb captured by anti-human Fc; column head prints Cyno CD33 binding KD
# [6] = molecular target: T3, Human CD33 full length, expressed on HEK293F cells (human, UniProt P20138 18-364); assay: flow cytometry, HEK293F cells expressing human CD33
# T3 construct: HEK293F cells transduced with lentivirus containing full length human CD33; also called huCD33
# T3 sequence (P20138 18-364 limits assumed): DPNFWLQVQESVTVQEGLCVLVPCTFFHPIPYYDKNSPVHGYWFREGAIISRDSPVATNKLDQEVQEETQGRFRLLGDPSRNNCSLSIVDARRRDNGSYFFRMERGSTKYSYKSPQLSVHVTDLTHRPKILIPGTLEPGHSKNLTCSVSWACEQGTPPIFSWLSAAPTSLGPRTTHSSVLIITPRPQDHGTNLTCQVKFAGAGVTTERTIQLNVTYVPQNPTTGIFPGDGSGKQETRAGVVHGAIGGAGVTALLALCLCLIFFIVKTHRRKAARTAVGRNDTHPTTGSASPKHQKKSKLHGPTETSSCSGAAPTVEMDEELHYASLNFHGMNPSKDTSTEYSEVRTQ
# Chain of Human CD33 ECD-HSA (human) (chain, as listed by the source): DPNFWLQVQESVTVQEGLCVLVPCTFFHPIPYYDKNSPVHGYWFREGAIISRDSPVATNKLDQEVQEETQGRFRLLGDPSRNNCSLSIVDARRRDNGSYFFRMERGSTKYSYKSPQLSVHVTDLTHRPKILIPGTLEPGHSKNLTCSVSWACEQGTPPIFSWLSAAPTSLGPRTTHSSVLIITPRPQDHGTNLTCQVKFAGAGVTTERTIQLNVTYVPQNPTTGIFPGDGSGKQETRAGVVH
binder,measurement,setting,value
"C33B63 (antibody, IgG1, V domains shown, huIgG1 F405L; also called C33F68; C33H51/C33L34) VH: QLQLQESGPGLVKPSETLSLTCTVSGGSISTGRYYWGWIRQPPGKGVIWIGNIYYSGNTYYNPSLKSRVTISVDTSKNQFSLKLNSVTAADTAVYYCARLGSLVVVPAAMSFDYWGQGTLVTVSS VL: SYELTQPPSVSVSPGQTASITCSGDKLGDKYACWYQLRPGQSPILVIYQDSNRPSGIPERFSGSNSGNTATLTISGTQAMDEADYYCQAWDSSTWVFGGGTKLTVL",Kd,Cyno CD33 ECD-HSA [1],1.22 nM
same,koff,Cyno CD33 ECD-HSA [1],0.00088 s⁻¹
same,kon,Cyno CD33 ECD-HSA [1],723000 M⁻¹ s⁻¹
same,Kd,Human CD33 ECD-HSA [2],7.01 nM
same,koff,Human CD33 ECD-HSA [2],0.00374 s⁻¹
same,kon,Human CD33 ECD-HSA [2],533000 M⁻¹ s⁻¹
same,koff,Human CD33 ECD-HSA [3],0.00457 s⁻¹
same,MFI at 0 nM mAb (background),[4],87.9 MFI
same,MFI at 0.6 nM mAb,[4],2880 MFI
same,MFI at 6 nM mAb,[4],11600 MFI
same,MFI at 60 nM mAb,[4],18300 MFI
same,koff,Cyno CD33 ECD-HSA [5],0.000947 s⁻¹
same,MFI at 0 nM mAb (background),[6],86.3 MFI
same,MFI at 0.6 nM mAb,[6],9670 MFI
same,MFI at 6 nM mAb,[6],62200 MFI
same,MFI at 60 nM mAb,[6],248000 MFI
"C33B87 (antibody, IgG1, V domains shown, huIgG1 F405L; also called C33F92; C33H87/C33L35) VH: not shown VL: SYELTQPPSVSVSPGQTASITCSGDKLGNKYASWYQQKPGQSPVLVIYQDTKRPSGIPERVSGSNSGNTATLTISGTQAMDEADYHCQAWDSSTVVFGGGTKLTVL",Kd,Cyno CD33 ECD-HSA [1],0.236 nM
same,koff,Cyno CD33 ECD-HSA [1],0.000264 s⁻¹
same,kon,Cyno CD33 ECD-HSA [1],1.12e+06 M⁻¹ s⁻¹
same,Kd,Human CD33 ECD-HSA [2],0.6 nM
same,koff,Human CD33 ECD-HSA [2],0.000432 s⁻¹
same,kon,Human CD33 ECD-HSA [2],720000 M⁻¹ s⁻¹
same,koff,Human CD33 ECD-HSA [3],0.000352 s⁻¹
same,MFI at 0 nM mAb (background),[4],103 MFI
same,MFI at 0.6 nM mAb,[4],3270 MFI
same,MFI at 6 nM mAb,[4],12700 MFI
same,MFI at 60 nM mAb,[4],19600 MFI
same,koff,Cyno CD33 ECD-HSA [5],0.000228 s⁻¹
same,MFI at 0 nM mAb (background),[6],73.7 MFI
same,MFI at 0.6 nM mAb,[6],12500 MFI
same,MFI at 6 nM mAb,[6],79500 MFI
same,MFI at 60 nM mAb,[6],242000 MFI
"C33B77 (antibody, IgG1, V domains shown, huIgG1 F405L; also called C33F82; C33H72/C33L40) VH: not shown VL: SYELTQPPSVSVSPGQTASITCSGNKLGAKFASWYQQKPGQSPVLVIYQDNKRPSGIPERFSGSNSGNTATLTISGTQAVDEADYYCQAWDSSTVVFGGGTKLTVL",Kd,Cyno CD33 ECD-HSA [1],0.247 nM
same,koff,Cyno CD33 ECD-HSA [1],0.000266 s⁻¹
same,kon,Cyno CD33 ECD-HSA [1],1.08e+06 M⁻¹ s⁻¹
same,Kd,Human CD33 ECD-HSA [2],0.32 nM
same,koff,Human CD33 ECD-HSA [2],0.000262 s⁻¹
same,kon,Human CD33 ECD-HSA [2],828000 M⁻¹ s⁻¹
same,koff,Human CD33 ECD-HSA [3],0.000337 s⁻¹
same,MFI at 0 nM mAb (background),[4],85.2 MFI
same,MFI at 0.6 nM mAb,[4],3600 MFI
same,MFI at 6 nM mAb,[4],11700 MFI
same,MFI at 60 nM mAb,[4],17500 MFI
same,koff,Cyno CD33 ECD-HSA [5],0.000418 s⁻¹
same,MFI at 0 nM mAb (background),[6],69.5 MFI
same,MFI at 0.6 nM mAb,[6],11500 MFI
same,MFI at 6 nM mAb,[6],88700 MFI
same,MFI at 60 nM mAb,[6],242000 MFI
"C33B124 (antibody, IgG1, V domains shown, huIgG1 F405L; also called C33F129; C33H73/C33L32) VH: EVQLLESGGGLVQPGGSLRLSCAASRFTFSSYAMTWVRQAPGKGLEWVSTINISGGSTYYADSVKGRFTISRDNSKNTLYLQMNSLRAEDTAVYYCTKGGYSSGPFDYWGQGTLVSVSS VL: SYELTQPPSVSVSPGQTASITCSGDKLGDKYVRWYQQKTGQSPVLVMYQDSKRPSGIRERFYGSNSGNTATPTISGTQAVDEAEYYCQAWDSSTGVVFGGGTKLTVL",Kd,Cyno CD33 ECD-HSA [1],1.01 nM
same,koff,Cyno CD33 ECD-HSA [1],0.000472 s⁻¹
same,kon,Cyno CD33 ECD-HSA [1],467000 M⁻¹ s⁻¹
same,Kd,Human CD33 ECD-HSA [2],0.35 nM
same,koff,Human CD33 ECD-HSA [2],0.000124 s⁻¹
same,kon,Human CD33 ECD-HSA [2],357000 M⁻¹ s⁻¹
same,koff,Human CD33 ECD-HSA [3],0.000238 s⁻¹
same,MFI at 0 nM mAb (background),[4],98.4 MFI
same,MFI at 0.6 nM mAb,[4],77.3 MFI
same,MFI at 6 nM mAb,[4],132 MFI
same,MFI at 60 nM mAb,[4],593 MFI
same,koff,Cyno CD33 ECD-HSA [5],0.000477 s⁻¹
same,MFI at 0 nM mAb (background),[6],172 MFI
same,MFI at 0.6 nM mAb,[6],90.3 MFI
same,MFI at 6 nM mAb,[6],126 MFI
same,MFI at 60 nM mAb,[6],798 MFI
